Source: patent publication US20140087995A1 (published 2014)
Numbered stars: 1 amine (or outer) side, 2 acyl side, 3 side chain; on linkers, the order of the positions; unused ones are H or OH. Bridge positions count the residues as written; N and C are the ends. Side chains are listed from the residue outwards. Ends that are not written are not given here. * marks the point of attachment. C20 diacid = O=C(O)CCCCCCCCCCCCCCCCCCC(=O)*; γGlu = O=C(O)[C@H](CCC(=O)[*:2])N[*:1]; AEEA = NCCOCCOCC(=O)O

Columns and labels:
[1] = target: T1, rat amylin receptor (rat calcitonin receptor + rat RAMP 3) (rat, UniProt P32214 25-516; Q9JJ73 23-147); test: SPA competition vs 125I-rat amylin, membranes of BHK cells with rat calcitonin receptor + rat RAMP3 (Assay VI)
T1 construct: whole, on cells; Membranes prepared from transiently transfected BHK tk'ts 13 cells (Assay VI); also called rAmylin-R; rAmylin
T1 sequence (looked up) 1: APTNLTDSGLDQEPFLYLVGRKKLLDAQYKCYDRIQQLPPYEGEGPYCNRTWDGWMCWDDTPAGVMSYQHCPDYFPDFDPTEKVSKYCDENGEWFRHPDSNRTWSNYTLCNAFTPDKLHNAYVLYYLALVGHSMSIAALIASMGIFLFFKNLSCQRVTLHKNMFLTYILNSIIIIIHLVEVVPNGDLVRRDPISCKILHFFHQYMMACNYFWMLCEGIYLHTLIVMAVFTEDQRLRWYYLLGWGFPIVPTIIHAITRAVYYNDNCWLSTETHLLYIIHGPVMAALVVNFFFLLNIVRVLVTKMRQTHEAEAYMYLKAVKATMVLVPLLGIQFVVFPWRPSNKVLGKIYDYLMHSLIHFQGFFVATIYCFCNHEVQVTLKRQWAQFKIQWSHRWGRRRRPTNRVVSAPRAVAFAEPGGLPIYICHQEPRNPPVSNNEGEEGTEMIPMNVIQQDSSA
T1 sequence (looked up) 2: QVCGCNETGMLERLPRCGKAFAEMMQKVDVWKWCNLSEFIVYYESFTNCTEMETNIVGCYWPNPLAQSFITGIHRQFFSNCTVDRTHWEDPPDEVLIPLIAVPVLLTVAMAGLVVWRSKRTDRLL

rat calcitonin receptor [2] = target: T2, rat calcitonin receptor (rat, UniProt P32214 25-516); test: SPA competition vs 125I-calcitonin, membranes of BHK cells with rat calcitonin receptor (Assay VIII)
T2 construct: whole, on cells; Membranes prepared from transiently transfected BHK tk'ts 13 cells (Assay VIII); also called rCTR; rCT
T2 sequence (looked up): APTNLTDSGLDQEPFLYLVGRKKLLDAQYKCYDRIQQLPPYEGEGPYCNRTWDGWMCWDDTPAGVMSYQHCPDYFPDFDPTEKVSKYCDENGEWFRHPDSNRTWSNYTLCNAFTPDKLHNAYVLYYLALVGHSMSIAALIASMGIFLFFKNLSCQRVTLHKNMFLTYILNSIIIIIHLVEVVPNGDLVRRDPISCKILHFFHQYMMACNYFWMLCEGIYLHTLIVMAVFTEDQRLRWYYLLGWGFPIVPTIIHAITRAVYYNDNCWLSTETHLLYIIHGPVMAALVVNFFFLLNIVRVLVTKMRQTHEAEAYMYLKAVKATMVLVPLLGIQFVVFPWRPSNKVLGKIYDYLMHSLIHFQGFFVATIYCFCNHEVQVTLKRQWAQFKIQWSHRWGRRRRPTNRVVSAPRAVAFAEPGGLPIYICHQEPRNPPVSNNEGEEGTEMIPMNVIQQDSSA

rat calcitonin receptor [3] = target: T2, rat calcitonin receptor; test: ratio of binding IC50s: rat calcitonin receptor / rat amylin receptor (reference)
[4] = target: T3, human calcitonin receptor (human, UniProt P30988 25-474); test: ratio of binding IC50s: human calcitonin receptor / human amylin receptor (reference)
T3 construct: whole, on cells; Membranes prepared from a stably transfected BHK cell line (Assay VII); also called hCTR; hCT
T3 sequence (looked up): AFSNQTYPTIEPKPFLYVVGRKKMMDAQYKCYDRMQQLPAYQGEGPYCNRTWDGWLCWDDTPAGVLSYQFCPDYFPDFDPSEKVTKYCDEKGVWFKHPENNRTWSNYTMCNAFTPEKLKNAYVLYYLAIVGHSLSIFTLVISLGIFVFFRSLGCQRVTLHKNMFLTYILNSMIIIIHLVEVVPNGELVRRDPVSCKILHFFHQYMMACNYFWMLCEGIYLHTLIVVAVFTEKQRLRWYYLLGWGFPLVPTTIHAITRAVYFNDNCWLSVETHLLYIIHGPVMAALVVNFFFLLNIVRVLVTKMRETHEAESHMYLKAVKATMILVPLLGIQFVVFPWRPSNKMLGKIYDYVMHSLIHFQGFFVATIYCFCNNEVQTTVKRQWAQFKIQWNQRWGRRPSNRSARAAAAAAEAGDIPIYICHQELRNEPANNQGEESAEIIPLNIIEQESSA
Procedure, shortened: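 Scintillation proximity competition binding on cell membranes at 35 ng/μL with SPA beads, in 50 mM Hepes pH 7.4, 1 mM CaCl2, 5 mM MgCl₂, 0.1% OA, 0.02% Tween20. Incubated 120 min at 25° C with shaking. IC₅₀ from one-site competition fit.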

Binder | IC50 [1] [nM] | IC50 (rat calcitonin receptor [2]) [nM] | Ratio rCT/rAmylin binding (rat calcitonin receptor [3]) | Ratio hCT/hAmylin binding [4]
K([AEEA-γGlu-C20 diacid])CNTATCATQRLAKFLRHSSPNFGAIPSSTPVGSNTY-NH2 (disulfide 2-7; N-terminus assumed; SMILES CC[C@H](C)[C@H](NC(=O)[C@H](C)NC(=O)CNC(=O)[C@H](Cc1ccccc1)NC(=O)[C@H](CC(N)=O)NC(=O)[C@@H]1CCCN1C(=O)[C@H](CO)NC(=O)[C@H](CO)NC(=O)[C@H](Cc1c[nH]cn1)NC(=O)[C@H](CCCNC(=N)N)NC(=O)[C@H](CC(C)C)NC(=O)[C@H](Cc1ccccc1)NC(=O)[C@H](CCCCN)NC(=O)[C@H](C)NC(=O)[C@H](CC(C)C)NC(=O)[C@H](CCCNC(=N)N)NC(=O)[C@H](CCC(N)=O)NC(=O)[C@@H](NC(=O)[C@H](C)NC(=O)[C@@H]1CSSC[C@H](NC(=O)[C@@H](N)CCCCNC(=O)COCCOCCNC(=O)CC[C@H](NC(=O)CCCCCCCCCCCCCCCCCCC(=O)O)C(=O)O)C(=O)N[C@@H](CC(N)=O)C(=O)N[C@@H]([C@@H](C)O)C(=O)N[C@@H](C)C(=O)N[C@@H]([C@@H](C)O)C(=O)N1)[C@@H](C)O)C(=O)N1CCC[C@H]1C(=O)N[C@@H](CO)C(=O)N[C@@H](CO)C(=O)N[C@H](C(=O)N1CCC[C@H]1C(=O)N[C@H](C(=O)NCC(=O)N[C@@H](CO)C(=O)N[C@@H](CC(N)=O)C(=O)N[C@H](C(=O)N[C@@H](Cc1ccc(O)cc1)C(N)=O)[C@@H](C)O)C(C)C)[C@@H](C)O, Analogue of human amylin; also called compound 74) | 4.89 | 109 | 22.3 | 101
K([AEEA-γGlu-C20 diacid])CNTATCATQRLASFLRHSSPNFGAIPSSTPVGSNTY-NH2 (disulfide 2-7; N-terminus assumed; SMILES CC[C@H](C)[C@H](NC(=O)[C@H](C)NC(=O)CNC(=O)[C@H](Cc1ccccc1)NC(=O)[C@H](CC(N)=O)NC(=O)[C@@H]1CCCN1C(=O)[C@H](CO)NC(=O)[C@H](CO)NC(=O)[C@H](Cc1c[nH]cn1)NC(=O)[C@H](CCCNC(=N)N)NC(=O)[C@H](CC(C)C)NC(=O)[C@H](Cc1ccccc1)NC(=O)[C@H](CO)NC(=O)[C@H](C)NC(=O)[C@H](CC(C)C)NC(=O)[C@H](CCCNC(=N)N)NC(=O)[C@H](CCC(N)=O)NC(=O)[C@@H](NC(=O)[C@H](C)NC(=O)[C@@H]1CSSC[C@H](NC(=O)[C@@H](N)CCCCNC(=O)COCCOCCNC(=O)CC[C@H](NC(=O)CCCCCCCCCCCCCCCCCCC(=O)O)C(=O)O)C(=O)N[C@@H](CC(N)=O)C(=O)N[C@@H]([C@@H](C)O)C(=O)N[C@@H](C)C(=O)N[C@@H]([C@@H](C)O)C(=O)N1)[C@@H](C)O)C(=O)N1CCC[C@H]1C(=O)N[C@@H](CO)C(=O)N[C@@H](CO)C(=O)N[C@H](C(=O)N1CCC[C@H]1C(=O)N[C@H](C(=O)NCC(=O)N[C@@H](CO)C(=O)N[C@@H](CC(N)=O)C(=O)N[C@H](C(=O)N[C@@H](Cc1ccc(O)cc1)C(N)=O)[C@@H](C)O)C(C)C)[C@@H](C)O, Analogue of human amylin; also called compound 73) | 0.283 | 50.3 | 178 | 51.7
K([AEEA-γGlu-C20 diacid])CNTATCATQRLATFLRHSSPNFGAIPSSTPVGSNTY-NH2 (disulfide 2-7; N-terminus assumed; SMILES CC[C@H](C)[C@H](NC(=O)[C@H](C)NC(=O)CNC(=O)[C@H](Cc1ccccc1)NC(=O)[C@H](CC(N)=O)NC(=O)[C@@H]1CCCN1C(=O)[C@H](CO)NC(=O)[C@H](CO)NC(=O)[C@H](Cc1c[nH]cn1)NC(=O)[C@H](CCCNC(=N)N)NC(=O)[C@H](CC(C)C)NC(=O)[C@H](Cc1ccccc1)NC(=O)[C@@H](NC(=O)[C@H](C)NC(=O)[C@H](CC(C)C)NC(=O)[C@H](CCCNC(=N)N)NC(=O)[C@H](CCC(N)=O)NC(=O)[C@@H](NC(=O)[C@H](C)NC(=O)[C@@H]1CSSC[C@H](NC(=O)[C@@H](N)CCCCNC(=O)COCCOCCNC(=O)CC[C@H](NC(=O)CCCCCCCCCCCCCCCCCCC(=O)O)C(=O)O)C(=O)N[C@@H](CC(N)=O)C(=O)N[C@@H]([C@@H](C)O)C(=O)N[C@@H](C)C(=O)N[C@@H]([C@@H](C)O)C(=O)N1)[C@@H](C)O)[C@@H](C)O)C(=O)N1CCC[C@H]1C(=O)N[C@@H](CO)C(=O)N[C@@H](CO)C(=O)N[C@H](C(=O)N1CCC[C@H]1C(=O)N[C@H](C(=O)NCC(=O)N[C@@H](CO)C(=O)N[C@@H](CC(N)=O)C(=O)N[C@H](C(=O)N[C@@H](Cc1ccc(O)cc1)C(N)=O)[C@@H](C)O)C(C)C)[C@@H](C)O, Analogue of human amylin; also called compound 75) | 4.03 | 442 | 110 | 91.4
K([γGlu-C20 diacid])CNTATCATQRLAAFLRHSSPNFGAIPSSTNVGHNTY-NH2 (disulfide 2-7; N-terminus assumed; SMILES CC[C@H](C)[C@H](NC(=O)[C@H](C)NC(=O)CNC(=O)[C@H](Cc1ccccc1)NC(=O)[C@H](CC(N)=O)NC(=O)[C@@H]1CCCN1C(=O)[C@H](CO)NC(=O)[C@H](CO)NC(=O)[C@H](Cc1c[nH]cn1)NC(=O)[C@H](CCCNC(=N)N)NC(=O)[C@H](CC(C)C)NC(=O)[C@H](Cc1ccccc1)NC(=O)[C@H](C)NC(=O)[C@H](C)NC(=O)[C@H](CC(C)C)NC(=O)[C@H](CCCNC(=N)N)NC(=O)[C@H](CCC(N)=O)NC(=O)[C@@H](NC(=O)[C@H](C)NC(=O)[C@@H]1CSSC[C@H](NC(=O)[C@@H](N)CCCCNC(=O)CC[C@H](NC(=O)CCCCCCCCCCCCCCCCCCC(=O)O)C(=O)O)C(=O)N[C@@H](CC(N)=O)C(=O)N[C@@H]([C@@H](C)O)C(=O)N[C@@H](C)C(=O)N[C@@H]([C@@H](C)O)C(=O)N1)[C@@H](C)O)C(=O)N1CCC[C@H]1C(=O)N[C@@H](CO)C(=O)N[C@@H](CO)C(=O)N[C@H](C(=O)N[C@@H](CC(N)=O)C(=O)N[C@H](C(=O)NCC(=O)N[C@@H](Cc1c[nH]cn1)C(=O)N[C@@H](CC(N)=O)C(=O)N[C@H](C(=O)N[C@@H](Cc1ccc(O)cc1)C(N)=O)[C@@H](C)O)C(C)C)[C@@H](C)O, Analogue of human amylin; also called compound 93) | 1.58 | 131 | 83.2 | 101
K([γGlu-C20 diacid])CNTATCATQRLARFLRHSSPNFGAIPSSTPVGSNTY-NH2 (disulfide 2-7; N-terminus assumed; SMILES CC[C@H](C)[C@H](NC(=O)[C@H](C)NC(=O)CNC(=O)[C@H](Cc1ccccc1)NC(=O)[C@H](CC(N)=O)NC(=O)[C@@H]1CCCN1C(=O)[C@H](CO)NC(=O)[C@H](CO)NC(=O)[C@H](Cc1c[nH]cn1)NC(=O)[C@H](CCCNC(=N)N)NC(=O)[C@H](CC(C)C)NC(=O)[C@H](Cc1ccccc1)NC(=O)[C@H](CCCNC(=N)N)NC(=O)[C@H](C)NC(=O)[C@H](CC(C)C)NC(=O)[C@H](CCCNC(=N)N)NC(=O)[C@H](CCC(N)=O)NC(=O)[C@@H](NC(=O)[C@H](C)NC(=O)[C@@H]1CSSC[C@H](NC(=O)[C@@H](N)CCCCNC(=O)CC[C@H](NC(=O)CCCCCCCCCCCCCCCCCCC(=O)O)C(=O)O)C(=O)N[C@@H](CC(N)=O)C(=O)N[C@@H]([C@@H](C)O)C(=O)N[C@@H](C)C(=O)N[C@@H]([C@@H](C)O)C(=O)N1)[C@@H](C)O)C(=O)N1CCC[C@H]1C(=O)N[C@@H](CO)C(=O)N[C@@H](CO)C(=O)N[C@H](C(=O)N1CCC[C@H]1C(=O)N[C@H](C(=O)NCC(=O)N[C@@H](CO)C(=O)N[C@@H](CC(N)=O)C(=O)N[C@H](C(=O)N[C@@H](Cc1ccc(O)cc1)C(N)=O)[C@@H](C)O)C(C)C)[C@@H](C)O, Analogue of human amylin; also called compound 63) | 3.48 | 124 | 35.6 | 157
